Patent US20210238276A1 (INTEGRAL MOLECULAR, published 2021)

Target: T1, hsGLUT4 Y159A (human, UniProt P14672 1-509)
T1 sequence: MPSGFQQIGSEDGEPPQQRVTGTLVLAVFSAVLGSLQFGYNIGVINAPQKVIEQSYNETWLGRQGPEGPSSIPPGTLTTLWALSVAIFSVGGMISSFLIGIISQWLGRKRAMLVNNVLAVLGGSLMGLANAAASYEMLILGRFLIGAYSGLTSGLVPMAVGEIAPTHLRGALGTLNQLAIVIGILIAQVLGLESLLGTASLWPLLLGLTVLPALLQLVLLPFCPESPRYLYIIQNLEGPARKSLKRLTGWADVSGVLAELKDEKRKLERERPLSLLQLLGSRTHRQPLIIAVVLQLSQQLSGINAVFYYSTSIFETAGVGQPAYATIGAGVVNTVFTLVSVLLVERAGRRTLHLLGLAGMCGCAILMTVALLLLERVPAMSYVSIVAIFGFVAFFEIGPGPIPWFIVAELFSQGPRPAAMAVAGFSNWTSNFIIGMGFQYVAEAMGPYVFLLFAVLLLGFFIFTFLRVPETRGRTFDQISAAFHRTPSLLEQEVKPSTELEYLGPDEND
Assay: flow cytometry, alanine-scan library in HEK-293T, with cytochalasin B

B1: AB102 (Fc fusion)
scFv: ALTQPSSVSANLGGTVKITCSGGGSYGYGWYQQKSPGSAPVTVIYSNDQRPSDIPSRFSGSKSGSTATLTITGVRAEDEAIYYCGSTDSDYVGIFGAGTTLTVLGQSSRSSGGGGSSGGGGSAVTLDESGGGLQTPGGTLSLVCKASGFDFSSYATIWVRQAPGKGLEWVAGISGTGTGSSTGYAPAVKGRATISRDNGQSTVRLQLNNLRAEDTGSYFCAKSTGYGDSWIYPDSIDAWGHGTEVIVSS
notes: also called MAb AB102; not shown: Fc fragment of human IgG1, cloned in frame with the scFv
B1 was tested. Which % of binding to wild type GLUT4 did it give?
The % of binding to wild type GLUT4 was 11%.
